Blank lines part the entries; values can stand above or below the molecule they belong to. *: point of attachment. Dabcyl = CN(C)c1ccc(N=Nc2ccc(C(=O)*)cc2)cc1; EDANS = O=S(=O)(O)c1cccc2c(NCCN*)cccc12
Assays:
[1] = test system: neuronal cells; parameters: method as in PMID 24434516; conditions: cited from earlier work
[2] = test system: CypA/CsA complex; assay: NMR competition with preformed CypA/CsA complex; assay type: binding; conditions: AIF(370-394) gradually added to preformed CypA/CsA complex
[3] = molecular target: T1, CypA (Homo sapiens, UniProt P62937); conditions: binding to CypA; cited from earlier work
T1 construct: His tag (6His); made in house
T1 sequence (P62937 whole entry): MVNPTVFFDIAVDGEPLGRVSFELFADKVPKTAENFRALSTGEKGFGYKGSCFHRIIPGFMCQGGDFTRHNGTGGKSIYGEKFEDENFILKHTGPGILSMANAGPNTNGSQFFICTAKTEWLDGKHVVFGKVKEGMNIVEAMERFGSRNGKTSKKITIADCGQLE
Source text: CSPs were quantified in terms of ΔδHNavs and classified as strong, medium and weak (see Methods section for details).

[4] = test system: CypA-CsA preformed complex; assay: ITC competition: AIF(370-394) titrated onto CypA-CsA preformed complex; assay type: binding; conditions: AIF(370-394) 5 to 500 μM titrated onto CypA-CsA complex, 25 °C
Protocol: Figure 5 ITC binding assay. […] The bottom panels show the integrated heat of each injection after correction for the heat of dilution of ligands. Curves represent the best fit to a single-site binding model. (C, D) ITC competition assays.
ITC experiments were performed at 25 °C using a MicroCal ITC200 (GE Healthcare Bio-Sciences AB, Sweden). Protein and peptide samples were dialyzed in phosphate saline buffer (PBS 1X) containing 1 mM DTT, pH 7.4. […] Data were analyzed using the “Origin” software (MicroCal). The dissociation constant (KD), molar binding stoichiometry (n) and the binding enthalpy (ΔH), entropy (ΔS) and Gibbs free energy (ΔG) were determined by fitting the binding isotherm to a one-site model with MicroCal Origin software. All ITC experiments were performed in triplicate.

[5] = test system: AIF(Δ1-121)/CypA complex; parameters: method as in PMID 24434516; conditions: cited from earlier work
[6] = test system: CypA and CypA^R55A; assay: Competition of CypA/substrate complex formation (fluorescence quenching); assay type: binding
Source text: Results are means of triplicates.
(§1) (1 picture or pasted object on this page, not shown here)

[7] = test system: CypA and CypA^R55A; assay: EnSpire label-free binding of AIF to immobilized CypA and CypA^R55A; conditions: CypA and CypAR55A immobilized, means of triplicates
Protocol: (§2) Direct binding assays were performed with the Corning Epic label-free technology with the EnSpire Multimode Plate Reader (PerkinElmer, Rodgau, Germany) as reported in literature.1 Briefly, […]
(§3) µg/mL streptavidin solution in 20 mM sodium acetate at pH 4.0, for 16 h at 4 °C. The microplate was subsequently washed three times with phosphate-buffered saline (PBS 1X, pH 7.4). After […]
(§4) assay buffer (PBS 1X, pH 7.4) for 2 hours followed by three washing steps in PBS 1X at pH 7.4.
(§5) After 2 h incubation, a baseline reading was recorded. Then 30 µL of peptide samples were dispensed in the plate. The final readings were taken over a period of 1 hour. Label-free responses were measured as shifts in reflected wavelength and were expressed in picometers (Fig. S4). The difference between the last baseline measurements and the maximum signal was used to determine the KD values (Table 1 in the main text). […]
biosensor by adding directly 100 µg/mL of protein in 20 mM sodium acetate pH 4.0, for 16 h at 4 °C (Fig. S5). […]
the procedure described above. Results were analyzed using the EnSpire label-free user interface software. […]
coated with CypA wild type with and without the CsA. Results were analyzed using the EnSpire label-free user interface software. […]
(B). Results were analyzed using the EnSpire label-free user interface software. […]

[8] = molecular target: T1, CypA; assay: Fluorescence quenching binding of FRET substrate; conditions: excitation 340 nm, emission 510 nm
Source text: probe clusters) and CS003 (11 probe clusters), CS004 (7 probe clusters), CS005 (4 probe clusters), CS006 (4 probe clusters) and CS007 (4 probe clusters), CS008 (3 probe clusters), CS009 (2 probe clusters). The top scoring ligand-binding site identified by FTMap on CypA is the active site, while the second, CS001 (Figure S7) is constituted by loops connecting α1-β3 (G42-C52) and a portion of the loop connecting β4-β5 (G65-S99), close to the catalytic site of CypA within the same interaction surface identified by NMR studies and mapped by trypsin MS-based foot-printing and contains 19 probe clusters. […]
Fluorescence-based assays
Fluorescence quenching assays were performed using the FRET substrate Ac-EK(Dabcyl)PPFAE(EDANS)KA-NH2 (MW 1556.2 amu) reported in literature.6 At 0.23 ng/μL (0.15 μM) the substrate provides a significant fluorescence emission at 510 nm compared to the buffers used in the assay (PBS 1X) (Figure S8A). […] Kinetic constants were determined by fitting data of fluorescence maxima at 510 nm of EDANS upon protein additions. […]
(Fig. S8B, red and blue lines, respectively) on the CypA/substrate complex formation were determined using a 10-fold excess (1.5 μM) of compounds. […]
Figure S8. Binding assay based on fluorescence quenching. (A) Fluorescence emission spectrum of CypA substrate. Samples were excited at 340 nm, and the emission in the range of 450-600 nm was measured. […]

[9] = molecular target: T2, AIF(370-394) (Homo sapiens, UniProt O95831); assay: EnSpire label-free direct binding to AIF(370-394); conditions: for KD: Corning Epic/EnSpire label-free, biotinylated AIF(370-394) immobilized on streptavidin-coated biosensor, PBS 1X pH 7.4, readings over 1 hour, means of triplicates; for binding / affinity for AIF(370-394), in words: EnSpire label-free
T2 construct: host or cells: chemical synthesis (synthetic peptide)
T2 sequence (O95831 370-394 limits assumed): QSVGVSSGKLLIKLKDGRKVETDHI
Protocol: Although peptide-peptide interaction insights might be prejudiced by the lack of appropriate 3D structures and require additional experimental assessment with full length proteins, they can mimic and anticipate in several cases real interactions. […] KD values determined by this approach are reported in Table 1 and the binding curves are shown in Supplementary Fig. S4.
as §2, §3, §4, §5
(§6) biosensor by adding directly 100 µg/mL of protein in 20 mM sodium acetate pH 4.0, for 16 h at 4 […]
(§7) by adding 200 µg/mL of protein in 20 mM sodium acetate pH 5.5, for 16 h at 4 °C. […]
(§8) the procedure described above. Results were analyzed using the EnSpire label-free user interface software. Plots were generated using GraphPad PrismR V-5.01 (GraphPad Software, La Jolla, CA). […]
Graphs were generated using GraphPad PrismR V-5.01 (GraphPad Software, La Jolla, CA). Results are means of triplicates.
as §1

[10] = molecular target: AIF(Δ1-121) (Homo sapiens, UniProt O95831); assay: EnSpire label-free direct binding to AIF(Δ1-121); conditions: for KD: Corning Epic/EnSpire label-free, AIF(Δ1-121) immobilized on biosensor (100 µg/mL, 20 mM sodium acetate pH 4.0), PBS 1X pH 7.4, readings over 1 hour, means of triplicates
Chain of AIF(Δ1-121) (O95831 122-613, stated change not applied): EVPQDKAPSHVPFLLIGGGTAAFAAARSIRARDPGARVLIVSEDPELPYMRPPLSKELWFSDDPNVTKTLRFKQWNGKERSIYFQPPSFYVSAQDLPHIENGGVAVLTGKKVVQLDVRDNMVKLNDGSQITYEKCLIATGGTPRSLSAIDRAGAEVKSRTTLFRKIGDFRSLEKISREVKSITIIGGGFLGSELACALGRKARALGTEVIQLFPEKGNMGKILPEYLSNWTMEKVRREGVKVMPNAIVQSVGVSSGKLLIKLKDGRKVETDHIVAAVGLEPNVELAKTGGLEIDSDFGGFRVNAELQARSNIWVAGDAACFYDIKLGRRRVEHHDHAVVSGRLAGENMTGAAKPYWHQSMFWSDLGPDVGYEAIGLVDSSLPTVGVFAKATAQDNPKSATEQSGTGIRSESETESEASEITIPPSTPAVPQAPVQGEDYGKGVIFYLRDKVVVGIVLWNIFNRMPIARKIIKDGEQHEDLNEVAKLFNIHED
Protocol: as §2, §3, §4, §5, §6, §7, §8
Results were analyzed using the EnSpire label-free user interface software. Graphs were generated using GraphPad PrismR V-5.01 (GraphPad Software, La Jolla, CA). Results are means of triplicates.
as §1

Molecule: CC[C@H](C)[C@H](NC(=O)[C@H](Cc1c[nH]cn1)NC(=O)[C@H](CC(=O)O)NC(=O)[C@@H](NC(=O)[C@H](CCC(=O)O)NC(=O)[C@@H](NC(=O)[C@H](CCCCN)NC(=O)[C@H](CCCNC(=N)N)NC(=O)CNC(=O)[C@H](CC(=O)O)NC(=O)[C@H](CCCCN)NC(=O)[C@H](CC(C)C)NC(=O)[C@H](CCCCN)NC(=O)[C@@H](NC(=O)[C@H](CC(C)C)NC(=O)[C@H](CC(C)C)NC(=O)[C@H](CCCCN)NC(=O)CNC(=O)[C@H](CO)NC(=O)[C@H](CO)NC(=O)[C@@H](NC(=O)CNC(=O)[C@@H](NC(=O)[C@H](CO)NC(=O)[C@H](CCC(N)=O)NC(C)=O)C(C)C)C(C)C)[C@@H](C)CC)C(C)C)[C@@H](C)O)C(N)=O [AIF(370-394)]
neuroprotection ([1]; AIF(Δ1-121)/CypA-mediated glutamate-induced cell death): pronounced neuroprotection
nuclear translocation of AIF and CypA [1]: blocking the nuclear translocation of the two proteins
AIF(370-394) interaction with CypA after CsA binding [2]: CsA binding to CypA did not fully abrogate the AIF(370-394) interaction with CypA
KD, in words [3]: low micromolar range
heat exchange [4]: no apparent heat exchange was observed
inhibition of AIF(Δ1-121)/CypA complex formation in vitro [5]: able to inhibit the AIF(Δ1-121)/CypA complex formation in vitro
effect on CypA and CypA^R55A binding to substrate ([6]; 10-fold excess (1.5 μM) of compound, fluorescence quenching, 510 nm, triplicates): unable to prevent the binding of both CypA and CypA^R55A to the substrate
effect on enzyme-substrate recognition ([6]; larger excess of AIF(370-394), not shown): does impair the enzyme-substrate recognition
binding to CypA versus CypA^R55A [7]: bound CypA and CypA^R55A in a similar way

Molecule: AIF(Δ1-121): apoptogenic (pro-apoptotic) form of AIF
binding to CypA versus CypA^R55A [7]: bound CypA and CypA^R55A in a similar way

Molecule: Ac-EK(Dabcyl)PPFAE(EDANS)KA-NH2 (SMILES CC(=O)N[C@@H](CCC(=O)O)C(=O)N[C@@H](CCCCNC(=O)c1ccc(N=Nc2ccc(N(C)C)cc2)cc1)C(=O)N1CCC[C@H]1C(=O)N1CCC[C@H]1C(=O)N[C@@H](Cc1ccccc1)C(=O)N[C@@H](C)C(=O)N[C@@H](CCC(=O)NCCNc1cccc2c(S(=O)(=O)O)cccc12)C(=O)N[C@@H](CCCCN)C(=O)N[C@@H](C)C(N)=O) [CypA substrate, FRET substrate of CypA, MW 1556.2 amu]
Δfluorescence emission vs buffer [8]: 319 a. u.

Molecule: CypA wild type: His-tagged CypA protein
Kd ([9]; full-length protein: CypA / CypAR55A immobilized (200 µg/mL, sodium acetate pH 5.5), AIF(370-394) added at several concentrations, means of triplicates (Fig. S7A)): 3000 ± 600 nM

Molecule: CypA(83-90): CypA-derived synthetic peptide, residues 83-90 (FEDENFIL)
KD [10]: No binding
KD [9]: No binding

The next lines start with results.

KD [9]: No binding
Molecule: CypA(55-69)R69: CypA(55-69) with R69 replaced by alanine (RIIPGFMCQGGDFTA)
binding / affinity for AIF(Δ1-121), in words ([10]; EnSpire label-free): completely abrogated the binding to both the AIF forms
binding / affinity for AIF(370-394), in words [9]: completely abrogated the binding to both the AIF forms

KD [10]: No binding
KD [9]: No binding
binding / affinity for AIF(370-394), in words [9]: did not interact with AIF(370-394)
Molecule: CypA(136-150): CypA-derived synthetic peptide, residues 136-150 (MNIVEAMERFGSRNG)

KD [10]: No binding
KD [9]: No binding
binding / affinity for AIF(370-394), in words [9]: did not interact with AIF(370-394)
Molecule: CypA(154-165): CypA-derived synthetic peptide, residues 154-165 (KKITIADCGQLE)

— article PMC5430804, “Structural and biochemical insights of CypA and AIF interaction” (Scientific Reports, 2017)
